The values below come from paper PMC6805997 (mBio, 2019).

Numbering of substitutions follows the chain as printed.

The target of assay [1] is T1, recombinant IsdB (iron-regulated surface determinant protein B), without signal peptide and sorting signal (Staphylococcus aureus, UniProt A6QG30).
T1 construct: source: E. coli BL21(DE3), pET15b, purified (HiTrap Talon column)
The assay is described as follows: BLI. The conditions noted are these: both partners purified.

The target of assay [2] is T1, recombinant IsdB (iron-regulated …). The assay is described as follows: ELISA. As to conditions: both partners purified.

T1 sequence (A6QG30 41-613): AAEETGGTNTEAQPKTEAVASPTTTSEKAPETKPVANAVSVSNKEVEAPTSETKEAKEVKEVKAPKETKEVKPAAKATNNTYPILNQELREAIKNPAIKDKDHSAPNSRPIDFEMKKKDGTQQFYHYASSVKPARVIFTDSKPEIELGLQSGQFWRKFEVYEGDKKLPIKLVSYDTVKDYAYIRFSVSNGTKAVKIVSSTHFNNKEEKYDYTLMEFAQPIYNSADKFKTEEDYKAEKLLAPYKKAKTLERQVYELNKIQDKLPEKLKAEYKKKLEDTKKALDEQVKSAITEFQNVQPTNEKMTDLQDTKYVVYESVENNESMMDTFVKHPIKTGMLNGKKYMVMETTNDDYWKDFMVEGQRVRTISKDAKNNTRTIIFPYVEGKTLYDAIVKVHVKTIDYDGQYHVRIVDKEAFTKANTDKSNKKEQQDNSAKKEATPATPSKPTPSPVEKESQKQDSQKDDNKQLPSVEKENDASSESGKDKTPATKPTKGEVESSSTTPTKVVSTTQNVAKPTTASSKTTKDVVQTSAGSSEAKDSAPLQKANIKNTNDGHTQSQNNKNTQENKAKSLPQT

B1: STAU-307 clonal variant 1 (antibody, V domains shown)
VH: QAQLMQSGAEVKKTGSSVKVSCTASGGTFNTNDLMWVRQAPGQGLEWMGGIVPVFGKPKYAKKFHGRLIITADEYMTTVYMELTSLTFDDTAIYFCARSGSTESPIQDIDFWGQGTQVTVSS
VL: SYVLTQPPSVSVAPGQTATITCGGDNIATFSVHWYRQKPGQAPVLVVYDDLDRASGIPARFSGSNSGNTATLTISRVEPGDEADYFCQVWEISSDEYVFGPGTSVTVL
notes: also called Variant 1 (STAU-307)
In the case of B1, in assay [1], the binding result is “binds”.

B2: STAU-229 clonal variant 3 (recombinant mAb) (antibody, V domains shown)
VH: EVQLVQSGAEVKKPGATVKIPCQVSGYTFTDYYIHWVQQAPGKGLEWMGLVDPEDGETRYAEKFQGRVTITADTSTDTAYMEMSSLTSEDAAVYYCAKPHCTTSSCQRVSGYYFGMDVWGQGTTVTVSS
VL: QSALTQPPSASGSPGQSVTISCTGSSNDVGDYNFVSWYQQHPGKPPKLMIYEVTKRPSGVPDRFFGSKSGNTASLTVSGLQADDEADYYCSSYAGGNSVVFGGGTKLTVL
notes: source: expressed recombinantly with the original light chain and purified
As for B2, in assay [1], the Kd (usually the constant that tells how readily two partners part at equilibrium) amounted to 1.44 nM and the “fold lower avidity than the hybridoma IgG” value was about 7 times.

B3: STAU-229 mAb (hybridoma cell line-expressed IgG) (antibody, V domains shown)
VH: EVQLVQSGAEVKKPGATMKISCKVSGYPFTDYYMHWVQQAPGKGLEWMGLIDPEDGETNYAEKFQGRVTITADTSTDTVYMELSSLRSEDTAVYFCAKPHCSSRTCQRVSGYYFGMDVWGQGTLVTVSS
VL: B2 VL
notes: also called STAU-229 IgG; hybridoma IgG
For the molecule B3, the binding result in assay [1] is given as “binds”.

B4: STAU-281 mAb (IgG) (antibody, V domains shown)
VH: QVQLVQSGAEVKRPGSSVRVSCKDSGDSFRRYVINWVRQAPGQGLEWMGGIIPIFDKAKSVQKFQDRLTITADESTSTSYMELSSLTSEDTAVYYCARKEDGRRDDVFDIWGQGTLVTVSS
VL: EIVMTQSPATLSVSLGERATLSCRASHSVGSSLAWYQQKPGLAPRLLIYGVSTRATGIPARFSGSGSATEFTLTISSLQSEDLAAYHCQQYDNWPFTFGQGTKLEIK
As for B4, the binding result in assay [1] is given as “binds”.

B5: STAU-399 clonal variant 6 (recombinant mAb) (antibody, V domains shown)
VH: HVQLVQSGAEVKKPGSSLKVSCKGSGGKLRGYGFSWGRQAPGQGLEWMGVIIPIFGAPTYAQKFQGRVTLAADESNNTVFMELSSLRSEDTAVYYCARDWPSITVAVDATNYGMDVWGQGTTVTVSS
VL: QSALTQPRSVSGSPGQSVTISCTGTSNDVGYYDHVSWYQQHPGKAPKFIIYDVSKRPSGVPDRFSGSKSDNTASLTISGLQAEDEADYYCCSFAGSYTYVFGTGTKVTVL
notes: as for B2
As for B5, in assay [1], the “fold lower affinity than the hybridoma IgG” value was determined as 27 fold. Also, the “fold lower EC50 value than the hybridoma IgG” value in assay [2] worked out at 18 fold.

B6: STAU-399 mAb (hybridoma IgG) (antibody, V domains shown)
VH: B5 VH with H1Q, G24V, K28N, G31S, F34I, G37V, A57T, E74D, T78I, T122L
VL: B5 VL
notes: also called STAU-399 IgG
As to B6, the binding result in assay [1] is given as “binds”.
